Assay results reported in article PMC8313675, “Molecular insights into the human ABCB6 transporter” (Cell Discovery, 2021).

Columns and labels:
[1] = biological target: the molecule itself; experiment: cryo-EM structure; apo-state WT hABCB6 in POPC:POPE (3:1) MSP2N2 nanodiscs, inward-facing, C2 symmetry, 3.6 A
[2] = biological target: the molecule itself; experiment: cryo-EM structure; hABCB6[EQ] in POPC:POPE MSP2N2 nanodiscs, incubated with 5 mM ATP-Mg2+ for 30 min at 37 C, occluded conformation, C2 symmetry, 3.5 A

B1: human ABCB6 (hABCB6), wild type, C-terminal Strep-tag (natural protein, UniProt Q9NP58 1-842, looked up)
chain: MVTVGNYCEAEGPVGPAWMQDGLSPCFFFTLVPSTRMALGTLALVLALPCRRRERPAGADSLSWGAGPRISPYVLQLLLATLQAALPLAGLAGRVGTARGAPLPSYLLLASVLESLAGACGLWLLVVERSQARQRLAMGIWIKFRHSPGLLLLWTVAFAAENLALVSWNSPQWWWARADLGQQVQFSLWVLRYVVSGGLFVLGLWAPGLRPQSYTLQVHEEDQDVERSQVRSAAQQSTWRDFGRKLRLLSGYLWPRGSPALQLVVLICLGLMGLERALNVLVPIFYRNIVNLLTEKAPWNSLAWTVTSYVFLKFLQGGGTGSTGFVSNLRTFLWIRVQQFTSRRVELLIFSHLHELSLRWHLGRRTGEVLRIADRGTSSVTGLLSYLVFNVIPTLADIIIGIIYFSMFFNAWFGLIVFLCMSLYLTLTIVVTEWRTKFRRAMNTQENATRARAVDSLLNFETVKYYNAESYEVERYREAIIKYQGLEWKSSASLVLLNQTQNLVIGLGLLAGSLLCAYFVTEQKLQVGDYVLFGTYIIQLYMPLNWFGTYYRMIQTNFIDMENMFDLLKEETEVKDLPGAGPLRFQKGRIEFENVHFSYADGRETLQDVSFTVMPGQTLALVGPSGAGKSTILRLLFRFYDISSGCIRIDGQDISQVTQASLRSHIGVVPQDTVLFNDTIADNIRYGRVTAGNDEVEAAAQAAGIHDAIMAFPEGYRTQVGERGLKLSGGEKQRVAIARTILKAPGIILLDEATSALDTSNERAIQASLAKVCANRTTIVVAHRLSTVVNADQILVIKDGCIVERGRHEALLSRGGVYADMWQLQQGQEETSEDTKPQTMER
notes: ABCB6, Homo sapiens, 842-amino acid protein; theoretical MW 94 kDa; TMD0 (residues 1-244) is in the protein but obscure in the map; PDB and EMDB ids are assigned by the order of the data availability sentence; also called WT hABCB6; hABCB6-WT; not shown: Strep-tag, C-terminal, kept
B1: binds [1].

B2: human ABCB6 E752Q mutant (hABCB6[EQ]), C-terminal Strep-tag (natural protein, UniProt Q9NP58 1-842, looked up)
chain: MVTVGNYCEAEGPVGPAWMQDGLSPCFFFTLVPSTRMALGTLALVLALPCRRRERPAGADSLSWGAGPRISPYVLQLLLATLQAALPLAGLAGRVGTARGAPLPSYLLLASVLESLAGACGLWLLVVERSQARQRLAMGIWIKFRHSPGLLLLWTVAFAAENLALVSWNSPQWWWARADLGQQVQFSLWVLRYVVSGGLFVLGLWAPGLRPQSYTLQVHEEDQDVERSQVRSAAQQSTWRDFGRKLRLLSGYLWPRGSPALQLVVLICLGLMGLERALNVLVPIFYRNIVNLLTEKAPWNSLAWTVTSYVFLKFLQGGGTGSTGFVSNLRTFLWIRVQQFTSRRVELLIFSHLHELSLRWHLGRRTGEVLRIADRGTSSVTGLLSYLVFNVIPTLADIIIGIIYFSMFFNAWFGLIVFLCMSLYLTLTIVVTEWRTKFRRAMNTQENATRARAVDSLLNFETVKYYNAESYEVERYREAIIKYQGLEWKSSASLVLLNQTQNLVIGLGLLAGSLLCAYFVTEQKLQVGDYVLFGTYIIQLYMPLNWFGTYYRMIQTNFIDMENMFDLLKEETEVKDLPGAGPLRFQKGRIEFENVHFSYADGRETLQDVSFTVMPGQTLALVGPSGAGKSTILRLLFRFYDISSGCIRIDGQDISQVTQASLRSHIGVVPQDTVLFNDTIADNIRYGRVTAGNDEVEAAAQAAGIHDAIMAFPEGYRTQVGERGLKLSGGEKQRVAIARTILKAPGIILLDQATSALDTSNERAIQASLAKVCANRTTIVVAHRLSTVVNADQILVIKDGCIVERGRHEALLSRGGVYADMWQLQQGQEETSEDTKPQTMER
notes: ABCB6, Homo sapiens, 842-amino acid protein, with the Walker B mutation E752Q; Same construct as m1 with E752Q; Incubated with 5 mM ATP-Mg2+ (and 20 uM PPIX) before grid preparation; PDB and EMDB ids are assigned by the order of the data availability sentence; also called hABCB6 E752Q; not shown: Strep-tag, C-terminal, kept
B2: binds [2].
